Experimental findings from publication PMC6761020 are described below.

This assay addresses Human Type IV Collagen (human) (UniProt P02462). The assay is described as follows: ELISA. In general terms: ELISA stands for enzyme-linked immunosorbent assay.

Sequence of Human Type IV Collagen (human) (P02462 173-1669): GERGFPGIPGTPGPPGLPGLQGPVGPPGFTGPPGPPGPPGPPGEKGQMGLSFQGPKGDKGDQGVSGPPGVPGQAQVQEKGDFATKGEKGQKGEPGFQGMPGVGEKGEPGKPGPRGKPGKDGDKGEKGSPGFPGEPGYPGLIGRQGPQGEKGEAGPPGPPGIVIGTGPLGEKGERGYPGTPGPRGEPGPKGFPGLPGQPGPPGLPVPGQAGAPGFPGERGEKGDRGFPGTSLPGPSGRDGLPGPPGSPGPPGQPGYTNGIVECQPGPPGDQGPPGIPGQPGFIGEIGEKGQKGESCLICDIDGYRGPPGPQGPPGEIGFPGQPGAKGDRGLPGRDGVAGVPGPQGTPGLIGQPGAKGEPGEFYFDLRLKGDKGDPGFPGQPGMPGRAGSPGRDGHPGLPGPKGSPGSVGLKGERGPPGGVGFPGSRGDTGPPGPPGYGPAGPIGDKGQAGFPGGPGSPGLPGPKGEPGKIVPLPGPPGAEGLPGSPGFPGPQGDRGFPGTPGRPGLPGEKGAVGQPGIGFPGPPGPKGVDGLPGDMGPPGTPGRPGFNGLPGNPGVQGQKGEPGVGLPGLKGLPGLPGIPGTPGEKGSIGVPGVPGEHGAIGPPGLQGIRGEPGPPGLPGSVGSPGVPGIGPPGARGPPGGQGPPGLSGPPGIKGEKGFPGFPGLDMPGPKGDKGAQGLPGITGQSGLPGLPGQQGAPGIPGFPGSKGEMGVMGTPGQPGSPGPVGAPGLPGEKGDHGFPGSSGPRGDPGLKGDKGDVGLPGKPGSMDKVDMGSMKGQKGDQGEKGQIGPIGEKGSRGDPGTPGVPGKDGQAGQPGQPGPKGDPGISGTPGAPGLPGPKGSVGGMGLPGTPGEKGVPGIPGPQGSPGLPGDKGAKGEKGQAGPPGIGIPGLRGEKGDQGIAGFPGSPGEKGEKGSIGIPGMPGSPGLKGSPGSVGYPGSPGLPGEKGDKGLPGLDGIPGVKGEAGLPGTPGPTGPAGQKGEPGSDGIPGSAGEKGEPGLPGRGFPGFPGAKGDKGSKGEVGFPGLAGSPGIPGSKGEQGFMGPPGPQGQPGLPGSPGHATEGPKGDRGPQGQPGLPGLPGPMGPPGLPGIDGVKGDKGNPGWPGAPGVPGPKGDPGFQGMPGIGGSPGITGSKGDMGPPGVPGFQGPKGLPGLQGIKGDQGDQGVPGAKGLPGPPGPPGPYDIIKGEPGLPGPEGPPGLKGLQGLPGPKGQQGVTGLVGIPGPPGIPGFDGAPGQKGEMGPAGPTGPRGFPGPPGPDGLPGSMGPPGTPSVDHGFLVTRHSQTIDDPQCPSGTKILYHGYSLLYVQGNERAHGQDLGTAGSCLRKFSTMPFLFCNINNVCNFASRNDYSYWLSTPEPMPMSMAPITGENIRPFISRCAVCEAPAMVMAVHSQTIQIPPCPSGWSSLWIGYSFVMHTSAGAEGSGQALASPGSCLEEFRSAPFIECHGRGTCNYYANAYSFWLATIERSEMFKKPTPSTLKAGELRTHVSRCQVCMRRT

With “von Willebrand factor (human, plasma) (from UniProt P04275 764-2813) (natural protein)”, the percent reduction of binding by 10 μg/ml ARC1779 against saline was 34%.
